The results in this text go back to patent publication US20220362357A1, “Synergistic Combinations of Amino Acid Depletion Agent Sensitizers (AADAS) and Amino Acid Depletion Agents (AADA), and Therapeutic Methods of Use Thereof” (STICHTING RADBOUD UNIVERSITAIR MEDISCH CENTRUM, priority 2018, published 2022).

The test system of series [1] is Human Acute Lymphoblastic Leukemia blasts in NSG mice. The settings on record: for bodyweight: NSG mice, ibrutinib 25 mg/kg oral daily 9 days, ONCASPAR 300 IU/kg IV days 1, 4, 7. The protocol:
Procedure. The experimental design is schematized in FIG. 7A. Briefly, thirty-two (32) NOD.Cg-Prkdcscid I2rgtm1Wjl/SzJ (“NSG”) mice were injected intrafemorally with 500,000 leukemic blasts (2 injections/mouse) (Human Acute Lymphoblastic Leukemia). […] During and after treatment, mice were weighed weekly, and their welfare was evaluated daily. Blood samples were taken weekly for assessment of the leukemia burden. Termination was predefined with a leukemia burden reaching 50% leukemic blasts in peripheral blood as measured by flow cytometry or euthanasia because of overt signs of discomfort due to disease.
The primary outcome of this experiment was event-free survival, where event was defined as […]. Differences in event-free survival were analyzed using a Kaplan-Meier plot and significance was tested using the log-rank test.

The test system of a further series is LOUCY cells. As to the kind of experiment: T-ALL cell line viability and cell death by amine exposure. The series is classed as cell-based, human. The conditions noted are these: 3 or 7 days.
Series [2] has as its system 30 cell lines covering a variety of cancer cell types. As to the kind of experiment: ApoTox-Glo Triplex Assay (viability, cytotoxicity, apoptosis), 3-4 days, panel. The settings on record: in still other cases. The series is classed as cell-based. The protocol: Two incubation times were tested. […] Ibrutinib was the AADAS as detailed above.
Cell culture conditions. Adherent tumor cells were grown as monolayer at 37° C. in a humidified atmosphere (5% CO2, 95% air). […] The cells were counted and their viability assessed by 0.25% trypan blue exclusion assay.
Cell plating for 3 to 4 day incubation.
Each compound was tested alone at 6 doses.
Experiments were performed in duplicate.
Two protocols of incubation were performed: overnight and over 3/4 days as indicated.
The assay was performed as recommended by the manufacturer. […] The assay was performed as recommended by the manufacturer. […] Apoptosis was measured in luminescence.

The subject of a further series is HBP-ALL cells. As to the kind of experiment: T-ALL cell line viability and cell death by amine exposure. It counts as cell-based, human. The conditions noted are these: 3 or 7 days.

Consider `C=CC(=O)N1CCC[C@@H](n2nc(-c3ccc(Oc4ccccc4)cc3)c3c(N)ncnc32)C1` [ibrutinib, reference compound], for which the bodyweight entry in series [1] was “mild and transient drop in bodyweight”. Further, the “mice that reached the termination point (>50% leukemic blasts) after 10 weeks” value in series [1] (weeks after transplantation) is reported as 4/7.

B1: PEG-Asparaginase: E. coli-derived peg-conjugated ASNase, used in the in vivo studies (protein, UniProt P00805 23-348, looked up)
L-asparaginase 2: LPNITILATGGTIAGGGDSATKSNYTVGKVGVENLVNAVPQLKDIANVKGEQVVNIGSQDMNDNVWLTLAKKINTDCDKTDGFVITHGTDTMEETAYFLDLTVKCDKPVVMVGAMRPSTSMSADGPFNLYNAVVTAADKASANRGVLVVMNDTVLDGRDVTKTNTTDVATFKSVNYGPLGYIHNGKIDYQRTPARKHTSDTPFDVSKLNELPKVGIVYNYANASDLPAKALVDAGYDGIVSAGVGNGNLYKSVFDTLATAAKTGTAVVRSSRVPTGATTQDAEVDDAKYGFVASGTLNPQKARVLLQLALTQTKDPQQIQQIFNQY
modifications: PEG conjugate (pegaspargase)
Take B1: the bodyweight entry in series [1] is reported as “strong but transient weight loss”. In addition, the leukemia development result in series [1] (human leukemic blasts in blood by flow cytometry) is given as “stronger delay in leukemia development”.

B2: …®: recombinantly produced E. coli ASNase, NCBI Ref Seq WP_000394140.1, ATC Code L01XX02 (protein, UniProt P00805 23-348, looked up)
L-asparaginase 2: LPNITILATGGTIAGGGDSATKSNYTVGKVGVENLVNAVPQLKDIANVKGEQVVNIGSQDMNDNVWLTLAKKINTDCDKTDGFVITHGTDTMEETAYFLDLTVKCDKPVVMVGAMRPSTSMSADGPFNLYNAVVTAADKASANRGVLVVMNDTVLDGRDVTKTNTTDVATFKSVNYGPLGYIHNGKIDYQRTPARKHTSDTPFDVSKLNELPKVGIVYNYANASDLPAKALVDAGYDGIVSAGVGNGNLYKSVFDTLATAAKTGTAVVRSSRVPTGATTQDAEVDDAKYGFVASGTLNPQKARVLLQLALTQTKDPQQIQQIFNQY
In the case of B2, the “sensitivity, cell death by amine exposure” value with LOUCY cells and with HBP-ALL cells was “extremely sensitive” each time. Also, in series [2], the “resistance of the cells” value was “somewhat resistant”.
